Assay results: patent US20180244777A1 (NUMAB THERAPEUTICS, published 2018)
Like-named read-outs stand apart in the source and are kept apart here.

T1: linear 15mer peptide derived from human CD3ε residues 2-16 (wild type of the substitution library, Set 1) (human)
T1 construct: Probed as a saturation mutagenesis library on a peptide array
T1 peptide: DGNEEMGGITQTPYK

T2: linear 15mer peptide derived from cynomolgus CD3ε residues 2-16 (wild type of the substitution library, Set 2) (cynomolgus)
T2 construct: Probed as a saturation mutagenesis library on a peptide array
T2 peptide: DGNEEMGSITQTPYQ

T3: linear 15mer peptides derived from human CD3ε residues 5-20 (Set 3) (human)
T3 construct: also called peptides spanning residues 5-20
T3 peptide: EEMGGITQTPYKVSIS

T4: linear 15mer peptides derived from cynomolgus CD3ε residues 5-20 (Set 4) (cynomolgus)
T4 construct: also called peptides spanning residues 5-20
T4 peptide: EEMGSITQTPYQVSIS


Experiments:
[1] = target: T1, linear 15mer peptide derived from human …; experiment: 15mer peptide array ELISA
[2] = target: T2, linear 15mer peptide derived from …; experiment: 15mer peptide array ELISA
[3] = target: T3, linear 15mer peptides derived from …; experiment: peptide array ELISA, Set 3
Protocol: (§1) The binding of the antibodies to each of the synthesized peptides was tested by ELISA. The peptide arrays were incubated with primary antibody solution (overnight at 4° C.). After washing, the peptide arrays were incubated with a 1/1000 dilution of an antibody peroxidase conjugate (SBA, cat.nr.2010-05) for one hour at 25° C. After washing, the peroxidase substrate 2,2′-azino-di-3-ethylbenzthiazoline sulfonate (ABTS) and 2 μl/ml of 3% H₂O₂ were added. After one hour, the color development was measured. The color development was quantified with a charge coupled device (CCD)—camera and an image processing system.

[4] = target: T4, linear 15mer peptides derived from …; experiment: peptide array ELISA, Set 4
Protocol: as §1

[5] = target: T5, human CD3ε expressed on the cell surface of T cells (Jurkat cells; human CD8+ T cells) (human, UniProt P07766 23-207); experiment: cell-based or functional assay
[6] = target: T5, human CD3ε expressed on the cell …; experiment: cell-based ELISA on Jurkat cells
Protocol: (§2) Jurkat cells (clone E6-1), a human T cell line, were seeded at 300,000 cells/well in round bottom 96-well plates in 100 μl phosphate-buffered saline (PBS) containing 10% FBS. Five-fold serial dilutions of anti-CD3 rabbit monoclonal antibodies ranging from 90 nM to 0.0058 nM were added to the plates in 100 μl PBS containing 10% FBS. […] This secondary antibody was linked to the enzyme horseradish peroxidase (HRP). HRP activity was measured by addition of TMB substrate (3,3′,5,5′-tetramethylbenzidine, KPL, Cat. No. 53-00-00), which in a colorimetric reaction is processed by the HRP. The color intensity of the processed substrate is directly proportional to the amount of anti-CD3 antibody bound to Jurkat cells. To quantify color intensity, light absorbance (optical density) at the respective wave length was measured using a microtiter plate reader (Infinity reader M200 Pro, Tecan).
(§3) To correct for unspecific binding of the antibodies to unknown components presented on the cell surface of Jurkat cells, a CD3ε deficient derivative of the Jurkat T cell line (J.RT3-T3.5) was used. Binding of the monoclonal antibodies to this cell line was measured as described above for the Jurkat cells. For quantification of specific binding to Jurkat cells, the optical density for binding to the negative control was subtracted from the optical density for binding to Jurkat cells. Data were analyzed using a four-parameter logistic curve fit using the Softmax Data Analysis Software (Molecular Devices), and the molar concentration of anti-CD3 antibody required to reach 50% binding (EC₅₀, mid-OD of the standard curve) was derived from dose response curves.

[7] = target: T6, cynomolgus monkey CD3ε expressed on the surface of HSC-F T cells (cynomolgus monkey, UniProt Q95LI5 22-198); experiment: cell-based ELISA on cyno HSC-F T cells
T6 construct: whole, on cells; also called cyno HSC-F T cells
T6 sequence (Q95LI5 22-198): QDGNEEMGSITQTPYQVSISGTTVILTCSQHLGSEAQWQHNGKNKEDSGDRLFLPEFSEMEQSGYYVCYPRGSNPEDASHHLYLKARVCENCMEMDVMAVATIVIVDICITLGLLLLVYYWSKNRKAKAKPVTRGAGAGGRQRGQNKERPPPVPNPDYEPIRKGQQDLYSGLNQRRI

[8] = target: T7, cynomolgus monkey heterodimeric single-chain CD3εγ extracellular domain (cynomolgus monkey, UniProt Q95LI5 22-117; Q95LI7 23-113); experiment: SPR; ratio of the KDs for cyno and human single-chain CD3εγ
T7 sequence (Q95LI7 other isoform, or with tags, fused parts or gaps): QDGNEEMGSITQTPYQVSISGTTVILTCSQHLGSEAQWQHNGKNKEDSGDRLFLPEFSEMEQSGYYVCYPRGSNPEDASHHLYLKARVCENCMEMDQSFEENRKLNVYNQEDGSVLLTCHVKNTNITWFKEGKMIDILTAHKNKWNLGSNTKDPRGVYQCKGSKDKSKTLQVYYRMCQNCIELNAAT

[9] = target: T7, cynomolgus monkey heterodimeric …; experiment: SPR, rabbit IgG captured, cyno single-chain CD3εγ ECD injected
[10] = target: T7, cynomolgus monkey heterodimeric …; experiment: as above; remark: listed apart in the source
[11] = target: T8, human heterodimeric single-chain CD3εγ extracellular domain (human, UniProt P07766 23-126; P09693 23-116); experiment: SPR, rabbit IgG captured, human single-chain CD3εγ ECD injected
T8 construct: extracellular domain; Produced in-house; also called scCD3γε; human CD3ge
Protocol: (§4) Binding affinities of monoclonal rabbit anti-CD3 antibodies were measured by surface plasmon resonance (SPR) using a MASS-1 SPR instrument (Sierra Sensors). […] Rabbit monoclonal antibodies were captured by the immobilized anti-rabbit IgG antibody. Two-fold serial dilutions of human heterodimeric single-chain CD3εγ extracellular domain (produced in-house) ranging from 90 to 2.81 nM were injected into the flow cells for 3 min and dissociation of the protein from the IgG captured on the sensor chip was allowed to proceed for 5 min. After each injection cycle, surfaces were regenerated with two injections of 10 mM glycine-HCl. The apparent dissociation (kd) and association (ka) rate constants and the apparent dissociation equilibrium constant (KD) were calculated with the MASS-1 analysis software (Analyzer, Sierra Sensors) using one-to-one Langmuir binding model.

[12] = target: T8, human heterodimeric single-chain CD3εγ …; experiment: as above; remark: listed apart in the source
Protocol: as §4

[13] = target: T5, human CD3ε expressed on the cell …; experiment: cell-based ELISA on Jurkat cells, CD3ε-deficient Jurkat subtracted
Protocol: as §2, §3

[14] = target: T5, human CD3ε expressed on the cell …; experiment: cell-based or functional assay; remark: listed apart in the source

binding result [1] | binding result [2] | binding result [3] | binding result [4] | Fold increase in CD69 expression [MFI normalized to neg. ctrl.], 1.25 µg/ml anti-CD3 IgG [5] | Fold increase in CD69 expression [MFI normalized to neg. ctrl.], 5 µg/ml anti-CD3 IgG [5] | Fold increase in CD69 expression [MFI normalized to neg. ctrl.], 20 µg/ml anti-CD3 IgG [5] | EC50 [6] | EC50 [7] | KD (human)/KD (cyno) [8] | Kd [9] | Kd [10] | koff [10] | kon [10] | Kd [11] | Kd [12] | koff [12] | kon [12] | EC50 [13] | EC50 in the dose-response curve of specific lysis of CHO-IL5R target cells at 64 hours [14] | Binder
binds | binds | no binding | no binding | 2.7 fold | 5.1 fold | 5.3 fold | 0.67 nM | 1.6 nM | 4 | 8.95 nM | 8.95 nM | 0.00397 s⁻¹ | 444000 M⁻¹ s⁻¹ | 2.23 nM | 2.23 nM | 0.00138 s⁻¹ | 618000 M⁻¹ s⁻¹ | 0.67 nM |  | clone-06 (antibody, V domains shown, Recombinant rabbit IgG; also called Clone 6) VH: QSVEESGGRLVTPGTPLTLTCTVSGFPLSSYAMIWVRQAPGKGLEWIGMILRAGNIYYASWVKGRVTISKTSTTVDLKITSPTTEDTATYFCARRHYNREGYPIGIGDLWGPGTLVTVSS VL: AQVLTQTPSSVSAAVGGTVTISCQSSESVYNNKRLSWFQQKPGQPPKQLIYTASSLASGVPSRFKGSGSGTQFTLTISDLECDDAATYYCQGEFTCSNADCFTFGGGTEVVVKG
binds | binds | no binding | no binding | 2.6 fold | 4.6 fold | 6.6 fold | 1.45 nM | 23.9 nM | 13 | 11.5 nM | 11.5 nM | 0.00403 s⁻¹ | 350000 M⁻¹ s⁻¹ | 0.905 nM | 0.905 nM | 0.000498 s⁻¹ | 551000 M⁻¹ s⁻¹ | 1.45 nM |  | clone-03 (antibody, V domains shown, Recombinant rabbit IgG; also called Clone 3) VH: QSLEESGGRLVTPGTPLTLTCTVSGFPLNRYAMLWVRQAPGKGLEWIGLITRADKKYYASWAKGRFTISKTSTTVDLEITGPTTEDTATYFCARRHYNTDGYPIAIGDLWGPGTLVTVSS VL: AQVLTQTPSSVSAAVGGTVTISCQSNENIYSNNRLSWFQQKPGQPPNQLIYSASSLASGVPSRFKGSGSGTQFTLTISDLECDDAATYYCQGEFNCNSADCFTFGGGTEVVVKG
 |  |  |  |  |  |  |  |  |  |  |  |  |  |  |  |  |  |  | 0.31 nM | anti-IL5R×CD3ε scDb containing Numab's anti-CD3 domain (humanized clone 6), Example 9 (bispecific antibody) DIQMTQSPSSLSASVGDRVTITCQASQNIYSNLAWYQQKPGKAPKLLIYRASTLASGVPSRFSGSGSGTDFTLTISSLQPEDFATYYCQSNYGINYYGAAFGQGTKLTVLGGGGGSEVQLVESGGGLVQPGGSLRLSCAASGFPLSSYAMIWVRQAPGKGLEWIGMILRAGNIYYASWVKGRFTISRDNSKNTVYLQMNSLRAEDTAVYYCARRHYNREGYPIGIGDLWGQGTLVTVSSGGGGSGGGGSGGGGSGGGGSDIQMTQSPSSLSASVGDRVTITCQSSESVYNNKRLSWYQQKPGKAPKLLIYTASSLASGVPSRFSGSGSGTDFTLTISSLQPEDFATYYCQGEFTCSNADCFTFGQGTKLTVLGGGGGSEVQLVESGGGLVQPGGSLRLSCAASGFSLSSYDMTWVRQAPGKGLEWIGIIYVSGSAYYASWAKGRFTISRDNSKNTVYLQMNSLRAEDTAVYYCARINYGLDLWGQGTLVTVSS
